Reference: patent US20240293588A1, “THERAPEUTIC CONJUGATES” (Starpharma Pty Ltd, priority 2020, published 2024)

B1: Nanobody*-N3/DBCO-NHCO-PEG12TCO/(MeTzPh)PEG4CO-NHPEG24CO-[N(PN)2][Lys]4[Lys]8[((α-NHCy5)1(α-NHAc)7)(ε-NH-COPEG1100)8], Compound 124 (VHH)
VHH: EVQLVESGGSLVQPGGSLRLSCAASGFTFDDYAMSWVRQVPGKGLEWVSSINWSGTHTDYADSVKGRFTISRNNANNTLYLQMNSLKSEDTAVYYCAKNWRDAGTTWFEKSGSAGQGTQVTVSS
modifications: C-terminal # (unnatural amino acid, p-azido-phenylalanine) clicked to DBCO-NHCO-PEG12-TCO, joined to the tetrazine at the core of the G3 lysine dendrimer Compound 52 (1 Cy5, 7 acetyl, 8 PEG1100)
notes: also called G3 2D3 conjugated dendrimer
B2: Nanobody*-N3/DBCO-NHCO-PEG12TCO/(MeTzPh)PEG4CO-NHPEG24CO-[N(PN)2][Lys]2[Lys]4[Lys]8[Lys]16[Lys]32[((α-NHCy5)1(α-NHAc)31)(ε-NH-COPEG1100)32], Compound 126 (VHH)
VHH: B1 VHH
modifications: C-terminal # (unnatural amino acid, p-azido-phenylalanine) clicked to DBCO-NHCO-PEG12-TCO, joined to the tetrazine at the core of the G5 lysine dendrimer Compound 54 (1 Cy5, 31 acetyl, 32 PEG1100)
notes: G5 2D3 conjugated dendrimer
B3: Nanobody*-N3/DBCO-NHCO-PEG12TCO/((MeTzPh)PEG4CO-NHPEG24CO-[N(PN)2][Lys]2[Lys]4[Lys]8[Lys]16[((α-NHCy5)1(α-NHAc)15)(ε-NH-COPEG1100)16, Compound 125 (VHH)
VHH: B1 VHH
modifications: C-terminal # (unnatural amino acid, p-azido-phenylalanine) clicked to DBCO-NHCO-PEG12-TCO, joined to the tetrazine at the core of the G4 lysine dendrimer Compound 53 (1 Cy5, 15 acetyl, 16 PEG1100)
notes: also called G4 2D3 conjugated dendrimer

Columns and labels:
ErbB2-ECD = ErbB2-ECD (Homo sapiens, UniProt P04626); test: SPR binding studies with immobilized ErbB2-ECD; settings: result in words
Protocol: Using a ProteOn XPR36 instrument, ErbB2-ECD was immobilized at 25° C. onto a GLC sensor chip surface (Bio-Rad), with HBS-P+ running buffer (10 mM HEPES, pH 7.4, 150 mM NaCl, 0.05% Tween 20). Standard amine coupling methodology described in Bio-Rad's amine coupling kit was utilized for this immobilization. Lane 1 was activated with a 50:50 mixture of EDC (0.5 mM) and sulfo-NHS (0.125 mM). ErbB2 protein was diluted to […] in 10 mM sodium acetate, pH 5.0 and injected over the activated surface channel. Any remaining activated sites were blocked with 1 M ethanolamine-HCl, pH 8.5.
All SPR binding experiments were performed at 25° C. using HBS-EP+/BSA (10 mM HEPES, pH 7.4, 150 mM NaCl, 3 mM EDTA, 0.05% Tween20, 0.1 mg/ml BSA) as the instrument running buffer (RB). Following immobilization procedures, various concentrations of anti-ErbB2 affibodies and their MMAE-dendrimer conjugates were injected at 60 μl/min over immobilized ErbB2 proteins and their association monitored for 90 sec. Running buffer was subsequently injected over bound Ab-ErbB2 complexes and dissociation monitored for up to 60 min. […] All binding measurements were performed in triplicate.
Collected experimental data were processed using Scrubber-Pro software (www.biologic.com.au). […]

MDA-MB-231/HER2 tumours = test: Tumour distribution of tritium-labelled MMAE-conjugated dendrimers; type: in vivo, NOD/SCID mice; settings: 3H label, 0.5 μCi via tail vein, 48 h, mean±SEM
Protocol: MDA-MB-231/HER2 cells (5×10^6 cells in 50 μL of PBS:Matrigel) were transplanted into the 4th mammary fat pad of female NOD/SCID mice (5-7 weeks old) subcutaneously. Solid tumours were allowed to grow to 100 mm^3 (approximately 3-4 weeks). The mice were divided into two different groups, consisting of six mice in each group. Compound 72 (control group) or Compound 127 (targeted group) (0.5 μCi in 100 μL, PBS pH 7) was then injected via tail vein under isoflurane sedation. The mice were anaesthetised with isoflurane 48 h later, and blood collected via cardiac puncture immediately prior to cervical dislocation. Selected organs (including tumour, liver, spleen, kidney, pancreas, lung, heart and brain) were subsequently removed, weighed and processed for tritium (^3H) biodistribution.

[1] = molecular target: T1, HER2 (human epidermal growth factor receptor 2) on cells (human, UniProt P04626 23-1255); test: flow cytometry (Cy5), MDA-MB-231/HER2 cells, 1 h
T1 construct: whole, on cells; also called ERBB2; HER2 receptor

[2] = molecular target: T1, HER2 (human epidermal growth factor …); test: flow cytometry (Cy5), MDA-MB-231/HER2 cells, 2 h
[3] = molecular target: T1, HER2 (human epidermal growth factor …); test: flow cytometry (Cy5), MDA-MB-231/HER2 cells, 4 h
[4] = molecular target: T1, HER2 (human epidermal growth factor …); test: flow cytometry (Cy5), MDA-MB-231/HER2 cells, 24 h
[5] = molecular target: T1, HER2 (human epidermal growth factor …); test: flow cytometry (Cy5), MDA-MB-231/HER2 cells, 0.5 h
[6] = molecular target: T1, HER2 (human epidermal growth factor …); test: flow cytometry (Cy5), MDA-MB-231/HER2 cells, 0.25 h
[7] = molecular target: T1, HER2 (human epidermal growth factor …); test: flow cytometry (Cy5), MDA-MB-231/HER2 cells, 3.33 nM, 37 °C, 1 h
[8] = molecular target: T1, HER2 (human epidermal growth factor …); test: flow cytometry (Cy5), MDA-MB-231/HER2 cells, 3.33 nM, 37 °C, 2 h
[9] = molecular target: T1, HER2 (human epidermal growth factor …); test: flow cytometry (Cy5), MDA-MB-231/HER2 cells, 3.33 nM, 37 °C, 4 h
[10] = molecular target: T1, HER2 (human epidermal growth factor …); test: flow cytometry (Cy5), MDA-MB-231/HER2 cells, 3.33 nM, 37 °C, 24 h
[11] = molecular target: T1, HER2 (human epidermal growth factor …); test: flow cytometry (Cy5), MDA-MB-231/HER2 cells, 3.33 nM, 37 °C, 0.5 h
Protocol: (§1) After incubation, non-binding/non-associating particles were removed from adherent cells by gently washing with DPBS three times (300 μL/well). Cells were removed from plates by treatment with TrypLE™ Express Enzyme (1×), no phenol red (150 μL/well) for 5-10 min at room temperature. The plates were then placed on ice. Cellular binding and association of sample were then determined through flow cytometry by the acquisition of the signal from Cy5.
(§2) To measure internalisation kinetics, nanobody-dendrimer was incubated with cells for 24, 4, 1, 0.5, and 0.1 hours at 37° C. before unbound nanobody-dendrimer was removed by washing and analysed by flow cytometry.

[12] = molecular target: T1, HER2 (human epidermal growth factor …); test: flow cytometry (Cy5), MDA-MB-231/HER2 cells, 3.33 nM, 37 °C, 0.25 h
Protocol: as §1, §2

[13] = molecular target: T1, HER2 (human epidermal growth factor …); test: flow cytometry (Cy5), HER2-positive MDA-MB-453 cells, triplicate wells
[14] = molecular target: T1, HER2 (human epidermal growth factor …); test: flow cytometry (Cy5), MDA-MB-231 parental cells (HER2 lo, control), 1 h
[15] = molecular target: T1, HER2 (human epidermal growth factor …); test: flow cytometry (Cy5), MDA-MB-231 parental cells (HER2 lo, control), 2 h
[16] = molecular target: T1, HER2 (human epidermal growth factor …); test: flow cytometry (Cy5), MDA-MB-231 parental cells (HER2 lo, control), 4 h
[17] = molecular target: T1, HER2 (human epidermal growth factor …); test: flow cytometry (Cy5), MDA-MB-231 parental cells (HER2 lo, control), 24 h
[18] = molecular target: T1, HER2 (human epidermal growth factor …); test: flow cytometry (Cy5), MDA-MB-231 parental cells (HER2 lo, control), 0.5 h
[19] = molecular target: T1, HER2 (human epidermal growth factor …); test: flow cytometry (Cy5), MDA-MB-231 parental cells (HER2 lo, control), 0.25 h
[20] = molecular target: T1, HER2 (human epidermal growth factor …); test: flow cytometry (Cy5), MDA-MB-231 parental cells (HER2 lo, control), 3.33 nM, 37 °C, 1 h
[21] = molecular target: T1, HER2 (human epidermal growth factor …); test: flow cytometry (Cy5), MDA-MB-231 parental cells (HER2 lo, control), 3.33 nM, 37 °C, 2 h
Protocol: as §1, §2

[22] = molecular target: T1, HER2 (human epidermal growth factor …); test: flow cytometry (Cy5), MDA-MB-231 parental cells (HER2 lo, control), 3.33 nM, 37 °C, 4 h
Protocol: as §1, §2

[23] = molecular target: T1, HER2 (human epidermal growth factor …); test: flow cytometry (Cy5), MDA-MB-231 parental cells (HER2 lo, control), 3.33 nM, 37 °C, 24 h
Protocol: as §1, §2

[24] = molecular target: T1, HER2 (human epidermal growth factor …); test: flow cytometry (Cy5), MDA-MB-231 parental cells (HER2 lo, control), 3.33 nM, 37 °C, 0.5 h
Protocol: as §1, §2

[25] = molecular target: T1, HER2 (human epidermal growth factor …); test: flow cytometry (Cy5), MDA-MB-231 parental cells (HER2 lo, control), 3.33 nM, 37 °C, 0.25 h
Protocol: as §1, §2

| Molecule | MFI [1] | MFI [2] | MFI [3] | MFI [4] | MFI [5] | MFI [6] | percent of cellular association [7] [%] | percent of cellular association [8] [%] | percent of cellular association [9] [%] | percent of cellular association [10] [%] | percent of cellular association [11] [%] | percent of cellular association [12] [%] | MFI [13] | MFI [14] | MFI [15] | MFI [16] | MFI [17] | MFI [18] | MFI [19] | percent of cellular association [20] [%] | further results |
| --- | --- | --- | --- | --- | --- | --- | --- | --- | --- | --- | --- | --- | --- | --- | --- | --- | --- | --- | --- | --- | --- |
| Azido-PEG24CO—[N(PN)2][Lys]2[Lys]4[Lys]8[(α-NHGlu-vc-PAB-MMAE)8(ε-NH-COPEG1100)8], G3 [Compound 65] |  |  |  |  |  |  |  |  |  |  |  |  |  |  |  |  |  |  |  |  | binding to ErbB2 proteins (SPR) (ErbB2-ECD): No binding |
| (MeTzPh)PEG4CO-NHPEG24CO—[N(PN)2][Lys]2[^3H-Lys]4[Lys]8[(α-NHGlu-VC-PAB-MMAE)8(ε-NH-COPEG1100)8], G3 [Compound 72] |  |  |  |  |  |  |  |  |  |  |  |  |  |  |  |  |  |  |  |  | accumulation in HER2 positive tumours (MDA-MB-231/HER2 tumours): 1.88 % dose/g; blood concentration (MDA-MB-231/HER2 tumours): 3.69 % dose/g |
| Azido-PEG24CO—[N(PN)2][Lys]2[Lys]4[Lys]8[(α-NHGlu-vc-PAB-MMAE)8(ε-NH-COPEG2000)8], G3 [Compound 66] |  |  |  |  |  |  |  |  |  |  |  |  |  |  |  |  |  |  |  |  | binding to ErbB2 proteins (SPR) (ErbB2-ECD): No binding |
| B1 | 294 | 445 | 800 | 1110 | 226 | 235 | 2.57 | 17.4 | 50.6 | 60.7 | 0.6 | 0.67 | 50.8 | 237 | 241 | 250 | 224 | 228 | 246 | 0.8 | percent of cellular association [21]: 1.13%; percent of cellular association [22]: 0.93%; percent of cellular association [23]: 0.83%; percent of cellular association [24]: 0.87%; percent of cellular association [25]: 1.07% |
| B2 | 295 | 436 | 1040 | 2750 | 237 | 207 | 2.8 | 18 | 59.8 | 73.5 | 0.7 | 0.43 | 177 | 254 | 233 | 247 | 223 | 245 | 195 | 1.37 | percent of cellular association [21]: 0.73%; percent of cellular association [22]: 0.67%; percent of cellular association [23]: 0.8%; percent of cellular association [24]: 1.03%; percent of cellular association [25]: 0.53% |
| B3 | 241 | 342 | 611 | 1010 | 224 | 215 | 0.77 | 6.13 | 36 | 56.3 | 0.67 | 0.57 | 158 | 230 | 236 | 246 | 219 | 223 | 227 | 1 | percent of cellular association [21]: 0.77%; percent of cellular association [22]: 0.83%; percent of cellular association [23]: 0.87%; percent of cellular association [24]: 0.53%; percent of cellular association [25]: 0.87% |
